Experimental data taken from US20180155451A1 (published 2018).

Molecular target: FcγRIIa H (human FcγRIIa, allotype with His at position 131), extracellular domain with C-terminal His tag (human, UniProt P12318 34-217)
Assay: SPR (Biacore), antibody captured on antigen peptide chip, FcγR as analyte; relative to HeCon Ab GpH7-A5/GpH7-B3/GpL16-k0 = 100

| Binder | He/Con_2aH |
| --- | --- |
| GpH7-A5/GpH7-B3 variant V266_07I/GpL16-k0 (antibody, human IgG1, kappa, heterodimerized, mutation in one H chain only; also called He Ab) heavy 1: not shown heavy 2: not shown light: DIVMTQSPLSLPVTPGEPASISCQASESLVHSNRNTYLHWYLQKPGQSPQLLIYKVSNRFSGVPDRFSGSGSGTDFTLKISRVEAEDVGVYYCSQNTHVPPTFGQGTKVEIERTVAAPSVFIFPPSDEQLKSGTASVVCLLNNFYPREAKVQWKVDNALQSGNSQESVTEQDSKDSTYSLSSTLTLSKADYEKHKVYACEVTHQGLSSPVTKSFNRGEC | 106 control = 100 |
| GpH7-A5/GpH7-B3 variant G236_04F/GpL16-k0 (antibody, human IgG1, kappa, heterodimerized, mutation in one H chain only; also called He Ab) heavy 1: not shown heavy 2: not shown light: DIVMTQSPLSLPVTPGEPASISCQASESLVHSNRNTYLHWYLQKPGQSPQLLIYKVSNRFSGVPDRFSGSGSGTDFTLKISRVEAEDVGVYYCSQNTHVPPTFGQGTKVEIERTVAAPSVFIFPPSDEQLKSGTASVVCLLNNFYPREAKVQWKVDNALQSGNSQESVTEQDSKDSTYSLSSTLTLSKADYEKHKVYACEVTHQGLSSPVTKSFNRGEC | 118 control = 100 |
| GpH7-A5/GpH7-B3 variant L234_04F/GpL16-k0 (antibody, human IgG1, kappa, heterodimerized, mutation in one H chain only; also called He Ab) heavy 1: not shown heavy 2: not shown light: DIVMTQSPLSLPVTPGEPASISCQASESLVHSNRNTYLHWYLQKPGQSPQLLIYKVSNRFSGVPDRFSGSGSGTDFTLKISRVEAEDVGVYYCSQNTHVPPTFGQGTKVEIERTVAAPSVFIFPPSDEQLKSGTASVVCLLNNFYPREAKVQWKVDNALQSGNSQESVTEQDSKDSTYSLSSTLTLSKADYEKHKVYACEVTHQGLSSPVTKSFNRGEC | 120 control = 100 |
| GpH7-A5/GpH7-B3 variant I336_10E/GpL16-k0 (antibody, human IgG1, kappa, heterodimerized, mutation in one H chain only; also called He Ab) heavy 1: not shown heavy 2: not shown light: DIVMTQSPLSLPVTPGEPASISCQASESLVHSNRNTYLHWYLQKPGQSPQLLIYKVSNRFSGVPDRFSGSGSGTDFTLKISRVEAEDVGVYYCSQNTHVPPTFGQGTKVEIERTVAAPSVFIFPPSDEQLKSGTASVVCLLNNFYPREAKVQWKVDNALQSGNSQESVTEQDSKDSTYSLSSTLTLSKADYEKHKVYACEVTHQGLSSPVTKSFNRGEC | 102 control = 100 |
| GpH7-A5/GpH7-B3 variant G236_14T/GpL16-k0 (antibody, human IgG1, kappa, heterodimerized, mutation in one H chain only; also called He Ab) heavy 1: not shown heavy 2: not shown light: DIVMTQSPLSLPVTPGEPASISCQASESLVHSNRNTYLHWYLQKPGQSPQLLIYKVSNRFSGVPDRFSGSGSGTDFTLKISRVEAEDVGVYYCSQNTHVPPTFGQGTKVEIERTVAAPSVFIFPPSDEQLKSGTASVVCLLNNFYPREAKVQWKVDNALQSGNSQESVTEQDSKDSTYSLSSTLTLSKADYEKHKVYACEVTHQGLSSPVTKSFNRGEC | 103 control = 100 |
| GpH7-A5/GpH7-B3 variant K326_07I/GpL16-k0 (antibody, human IgG1, kappa, heterodimerized, mutation in one H chain only; also called He Ab) heavy 1: not shown heavy 2: not shown light: DIVMTQSPLSLPVTPGEPASISCQASESLVHSNRNTYLHWYLQKPGQSPQLLIYKVSNRFSGVPDRFSGSGSGTDFTLKISRVEAEDVGVYYCSQNTHVPPTFGQGTKVEIERTVAAPSVFIFPPSDEQLKSGTASVVCLLNNFYPREAKVQWKVDNALQSGNSQESVTEQDSKDSTYSLSSTLTLSKADYEKHKVYACEVTHQGLSSPVTKSFNRGEC | 100 control = 100 |
| GpH7-A5/GpH7-B3 variant I336_03V/GpL16-k0 (antibody, human IgG1, kappa, heterodimerized, mutation in one H chain only; also called He Ab) heavy 1: not shown heavy 2: not shown light: DIVMTQSPLSLPVTPGEPASISCQASESLVHSNRNTYLHWYLQKPGQSPQLLIYKVSNRFSGVPDRFSGSGSGTDFTLKISRVEAEDVGVYYCSQNTHVPPTFGQGTKVEIERTVAAPSVFIFPPSDEQLKSGTASVVCLLNNFYPREAKVQWKVDNALQSGNSQESVTEQDSKDSTYSLSSTLTLSKADYEKHKVYACEVTHQGLSSPVTKSFNRGEC | 102 control = 100 |
| GpH7-A5/GpH7-B3 variant L234_15Y/GpL16-k0 (antibody, human IgG1, kappa, heterodimerized, mutation in one H chain only; also called He Ab) heavy 1: not shown heavy 2: not shown light: DIVMTQSPLSLPVTPGEPASISCQASESLVHSNRNTYLHWYLQKPGQSPQLLIYKVSNRFSGVPDRFSGSGSGTDFTLKISRVEAEDVGVYYCSQNTHVPPTFGQGTKVEIERTVAAPSVFIFPPSDEQLKSGTASVVCLLNNFYPREAKVQWKVDNALQSGNSQESVTEQDSKDSTYSLSSTLTLSKADYEKHKVYACEVTHQGLSSPVTKSFNRGEC | 120 control = 100 |
| GpH7-A5/GpH7-B3 variant E333_13S/GpL16-k0 (antibody, human IgG1, kappa, heterodimerized, mutation in one H chain only; also called He Ab) heavy 1: not shown heavy 2: not shown light: DIVMTQSPLSLPVTPGEPASISCQASESLVHSNRNTYLHWYLQKPGQSPQLLIYKVSNRFSGVPDRFSGSGSGTDFTLKISRVEAEDVGVYYCSQNTHVPPTFGQGTKVEIERTVAAPSVFIFPPSDEQLKSGTASVVCLLNNFYPREAKVQWKVDNALQSGNSQESVTEQDSKDSTYSLSSTLTLSKADYEKHKVYACEVTHQGLSSPVTKSFNRGEC | 101 control = 100 |
| GpH7-A5/GpH7-B3 variant Y296_18N/GpL16-k0 (antibody, human IgG1, kappa, heterodimerized, mutation in one H chain only; also called He Ab) heavy 1: not shown heavy 2: not shown light: DIVMTQSPLSLPVTPGEPASISCQASESLVHSNRNTYLHWYLQKPGQSPQLLIYKVSNRFSGVPDRFSGSGSGTDFTLKISRVEAEDVGVYYCSQNTHVPPTFGQGTKVEIERTVAAPSVFIFPPSDEQLKSGTASVVCLLNNFYPREAKVQWKVDNALQSGNSQESVTEQDSKDSTYSLSSTLTLSKADYEKHKVYACEVTHQGLSSPVTKSFNRGEC | 104 control = 100 |
| GpH7-A5/GpH7-B3 variant K326_01G/GpL16-k0 (antibody, human IgG1, kappa, heterodimerized, mutation in one H chain only; also called He Ab) heavy 1: not shown heavy 2: not shown light: DIVMTQSPLSLPVTPGEPASISCQASESLVHSNRNTYLHWYLQKPGQSPQLLIYKVSNRFSGVPDRFSGSGSGTDFTLKISRVEAEDVGVYYCSQNTHVPPTFGQGTKVEIERTVAAPSVFIFPPSDEQLKSGTASVVCLLNNFYPREAKVQWKVDNALQSGNSQESVTEQDSKDSTYSLSSTLTLSKADYEKHKVYACEVTHQGLSSPVTKSFNRGEC | 100 control = 100 |
| GpH7-A5/GpH7-B3 variant K334_13S/GpL16-k0 (antibody, human IgG1, kappa, heterodimerized, mutation in one H chain only; also called He Ab) heavy 1: not shown heavy 2: not shown light: DIVMTQSPLSLPVTPGEPASISCQASESLVHSNRNTYLHWYLQKPGQSPQLLIYKVSNRFSGVPDRFSGSGSGTDFTLKISRVEAEDVGVYYCSQNTHVPPTFGQGTKVEIERTVAAPSVFIFPPSDEQLKSGTASVVCLLNNFYPREAKVQWKVDNALQSGNSQESVTEQDSKDSTYSLSSTLTLSKADYEKHKVYACEVTHQGLSSPVTKSFNRGEC | 102 control = 100 |
| GpH7-A5/GpH7-B3 variant L234_20W/GpL16-k0 (antibody, human IgG1, kappa, heterodimerized, mutation in one H chain only; also called He Ab) heavy 1: not shown heavy 2: not shown light: DIVMTQSPLSLPVTPGEPASISCQASESLVHSNRNTYLHWYLQKPGQSPQLLIYKVSNRFSGVPDRFSGSGSGTDFTLKISRVEAEDVGVYYCSQNTHVPPTFGQGTKVEIERTVAAPSVFIFPPSDEQLKSGTASVVCLLNNFYPREAKVQWKVDNALQSGNSQESVTEQDSKDSTYSLSSTLTLSKADYEKHKVYACEVTHQGLSSPVTKSFNRGEC | 114 control = 100 |
| GpH7-A5/GpH7-B3 variant E333_08L/GpL16-k0 (antibody, human IgG1, kappa, heterodimerized, mutation in one H chain only; also called He Ab) heavy 1: not shown heavy 2: not shown light: DIVMTQSPLSLPVTPGEPASISCQASESLVHSNRNTYLHWYLQKPGQSPQLLIYKVSNRFSGVPDRFSGSGSGTDFTLKISRVEAEDVGVYYCSQNTHVPPTFGQGTKVEIERTVAAPSVFIFPPSDEQLKSGTASVVCLLNNFYPREAKVQWKVDNALQSGNSQESVTEQDSKDSTYSLSSTLTLSKADYEKHKVYACEVTHQGLSSPVTKSFNRGEC | 102 control = 100 |
| GpH7-A5/GpH7-B3 variant K334_19Q/GpL16-k0 (antibody, human IgG1, kappa, heterodimerized, mutation in one H chain only; also called He Ab) heavy 1: not shown heavy 2: not shown light: DIVMTQSPLSLPVTPGEPASISCQASESLVHSNRNTYLHWYLQKPGQSPQLLIYKVSNRFSGVPDRFSGSGSGTDFTLKISRVEAEDVGVYYCSQNTHVPPTFGQGTKVEIERTVAAPSVFIFPPSDEQLKSGTASVVCLLNNFYPREAKVQWKVDNALQSGNSQESVTEQDSKDSTYSLSSTLTLSKADYEKHKVYACEVTHQGLSSPVTKSFNRGEC | 101 control = 100 |
| GpH7-A5/GpH7-B3 variant G236_15Y/GpL16-k0 (antibody, human IgG1, kappa, heterodimerized, mutation in one H chain only; also called He Ab) heavy 1: not shown heavy 2: not shown light: DIVMTQSPLSLPVTPGEPASISCQASESLVHSNRNTYLHWYLQKPGQSPQLLIYKVSNRFSGVPDRFSGSGSGTDFTLKISRVEAEDVGVYYCSQNTHVPPTFGQGTKVEIERTVAAPSVFIFPPSDEQLKSGTASVVCLLNNFYPREAKVQWKVDNALQSGNSQESVTEQDSKDSTYSLSSTLTLSKADYEKHKVYACEVTHQGLSSPVTKSFNRGEC | 136 control = 100 |
| GpH7-A5/GpH7-B3 variant K326_12R/GpL16-k0 (antibody, human IgG1, kappa, heterodimerized, mutation in one H chain only; also called He Ab) heavy 1: not shown heavy 2: not shown light: DIVMTQSPLSLPVTPGEPASISCQASESLVHSNRNTYLHWYLQKPGQSPQLLIYKVSNRFSGVPDRFSGSGSGTDFTLKISRVEAEDVGVYYCSQNTHVPPTFGQGTKVEIERTVAAPSVFIFPPSDEQLKSGTASVVCLLNNFYPREAKVQWKVDNALQSGNSQESVTEQDSKDSTYSLSSTLTLSKADYEKHKVYACEVTHQGLSSPVTKSFNRGEC | 101 control = 100 |
| GpH7-A5/GpH7-B3 variant E333_14T/GpL16-k0 (antibody, human IgG1, kappa, heterodimerized, mutation in one H chain only; also called He Ab) heavy 1: not shown heavy 2: not shown light: DIVMTQSPLSLPVTPGEPASISCQASESLVHSNRNTYLHWYLQKPGQSPQLLIYKVSNRFSGVPDRFSGSGSGTDFTLKISRVEAEDVGVYYCSQNTHVPPTFGQGTKVEIERTVAAPSVFIFPPSDEQLKSGTASVVCLLNNFYPREAKVQWKVDNALQSGNSQESVTEQDSKDSTYSLSSTLTLSKADYEKHKVYACEVTHQGLSSPVTKSFNRGEC | 100 control = 100 |
| GpH7-A5/GpH7-B3 variant I336_18N/GpL16-k0 (antibody, human IgG1, kappa, heterodimerized, mutation in one H chain only; also called He Ab) heavy 1: not shown heavy 2: not shown light: DIVMTQSPLSLPVTPGEPASISCQASESLVHSNRNTYLHWYLQKPGQSPQLLIYKVSNRFSGVPDRFSGSGSGTDFTLKISRVEAEDVGVYYCSQNTHVPPTFGQGTKVEIERTVAAPSVFIFPPSDEQLKSGTASVVCLLNNFYPREAKVQWKVDNALQSGNSQESVTEQDSKDSTYSLSSTLTLSKADYEKHKVYACEVTHQGLSSPVTKSFNRGEC | 103 control = 100 |
| GpH7-A5/GpH7-B3 variant A327_09D/GpL16-k0 (antibody, human IgG1, kappa, heterodimerized, mutation in one H chain only; also called He Ab) heavy 1: not shown heavy 2: not shown light: DIVMTQSPLSLPVTPGEPASISCQASESLVHSNRNTYLHWYLQKPGQSPQLLIYKVSNRFSGVPDRFSGSGSGTDFTLKISRVEAEDVGVYYCSQNTHVPPTFGQGTKVEIERTVAAPSVFIFPPSDEQLKSGTASVVCLLNNFYPREAKVQWKVDNALQSGNSQESVTEQDSKDSTYSLSSTLTLSKADYEKHKVYACEVTHQGLSSPVTKSFNRGEC | 105 control = 100 |
| GpH7-A5/GpH7-B3 variant A330_19Q/GpL16-k0 (antibody, human IgG1, kappa, heterodimerized, mutation in one H chain only; also called He Ab) heavy 1: not shown heavy 2: not shown light: DIVMTQSPLSLPVTPGEPASISCQASESLVHSNRNTYLHWYLQKPGQSPQLLIYKVSNRFSGVPDRFSGSGSGTDFTLKISRVEAEDVGVYYCSQNTHVPPTFGQGTKVEIERTVAAPSVFIFPPSDEQLKSGTASVVCLLNNFYPREAKVQWKVDNALQSGNSQESVTEQDSKDSTYSLSSTLTLSKADYEKHKVYACEVTHQGLSSPVTKSFNRGEC | 102 control = 100 |
| GpH7-A5/GpH7-B3 variant E333_04F/GpL16-k0 (antibody, human IgG1, kappa, heterodimerized, mutation in one H chain only; also called He Ab) heavy 1: not shown heavy 2: not shown light: DIVMTQSPLSLPVTPGEPASISCQASESLVHSNRNTYLHWYLQKPGQSPQLLIYKVSNRFSGVPDRFSGSGSGTDFTLKISRVEAEDVGVYYCSQNTHVPPTFGQGTKVEIERTVAAPSVFIFPPSDEQLKSGTASVVCLLNNFYPREAKVQWKVDNALQSGNSQESVTEQDSKDSTYSLSSTLTLSKADYEKHKVYACEVTHQGLSSPVTKSFNRGEC | 102 control = 100 |
